This assay addresses endogenous Ras (COS cells).

With “Myc-Raf (84-87A) (from UniProt P04049) (enzyme)”, the EGF or PMA-stimulated activation of Raf kinase in COS cells was greater than 85%.

Values taken from patent publication US6103692.
